# Test results from IntAct's records for PubMed 30902834.
# B1: Protein-arginine N-acetylglucosaminyltransferase SseK3 (Salmonella typhimurium (strain SL1344)), P0DUJ7 (parent)
# chain: MFSRVRGFLSCQNYSHTATPAITLPSSGSANFAGVEYPLLPLDQHTPLLFQWFERNPSRFGENQIPIINTQQNPYLNNIINAAIIEKERTIGVLVDGNFSAGQKKALAKLEKQYENIKVIYNSDLDYSMYDKKLSDIYLENIAKIEAQPANVRDEYLLGEIKKSLNEVLKNNPEESLVSSHDKRLGHVRFDFYRNLFLLKGSNAFLEAGKHGCHHLQPGGGCIYLDADMLLTGKLGTLYLPDGIAVHVSRKGNSMSLENGIIAVNRSEHPALKKGLEIMHSKPYGDPYIDGVCGGLRHYFNCSIRHNYEEFCNFIEFKHEHIFMDTSSLTISSWR
# B2: Protein-arginine N-acetylglucosaminyltransferase SseK3 (Salmonella typhimurium (strain SL1344)), P0DUJ7 (parent)
# chain: B1 chain
# partner: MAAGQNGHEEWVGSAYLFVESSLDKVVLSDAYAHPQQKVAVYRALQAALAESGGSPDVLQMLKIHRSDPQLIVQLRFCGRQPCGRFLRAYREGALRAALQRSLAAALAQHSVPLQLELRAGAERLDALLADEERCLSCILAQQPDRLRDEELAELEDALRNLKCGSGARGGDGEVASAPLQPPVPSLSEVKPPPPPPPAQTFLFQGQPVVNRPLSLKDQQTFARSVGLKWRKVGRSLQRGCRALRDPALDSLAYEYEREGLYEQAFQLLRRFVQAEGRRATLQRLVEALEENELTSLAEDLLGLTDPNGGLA
# Variants of: B1
# Details: with tr10b_human TNFRSF10B
row,Variant,effect of a mutation on the interaction
1,E258A,disrupting interaction

# Variants of: B2
# Details: with tradd_human TRADD
row,Variant,effect of a mutation on the interaction
1,E258A,disrupting interaction
